Assay in all cases: smFRET
The target of series [1] is T1, human RPA (RPA70-RPA32-RPA14) (human, UniProt P27694;P15927;P35244 1-616;1-270;1-121).
Series [2] addresses T1, human RPA (RPA70-RPA32-RPA14). This is another data set of the same source.
The next series has as its target yeast RPA (Saccharomyces cerevisiae, UniProt P22336;P26754;P26755 1-621;1-273;1-122).

Read-outs that look alike come from different tables or passages of the source.

The text below walks through data of PMC11514480.

T1 sequence (P27694 whole entry, chain 1 of 3): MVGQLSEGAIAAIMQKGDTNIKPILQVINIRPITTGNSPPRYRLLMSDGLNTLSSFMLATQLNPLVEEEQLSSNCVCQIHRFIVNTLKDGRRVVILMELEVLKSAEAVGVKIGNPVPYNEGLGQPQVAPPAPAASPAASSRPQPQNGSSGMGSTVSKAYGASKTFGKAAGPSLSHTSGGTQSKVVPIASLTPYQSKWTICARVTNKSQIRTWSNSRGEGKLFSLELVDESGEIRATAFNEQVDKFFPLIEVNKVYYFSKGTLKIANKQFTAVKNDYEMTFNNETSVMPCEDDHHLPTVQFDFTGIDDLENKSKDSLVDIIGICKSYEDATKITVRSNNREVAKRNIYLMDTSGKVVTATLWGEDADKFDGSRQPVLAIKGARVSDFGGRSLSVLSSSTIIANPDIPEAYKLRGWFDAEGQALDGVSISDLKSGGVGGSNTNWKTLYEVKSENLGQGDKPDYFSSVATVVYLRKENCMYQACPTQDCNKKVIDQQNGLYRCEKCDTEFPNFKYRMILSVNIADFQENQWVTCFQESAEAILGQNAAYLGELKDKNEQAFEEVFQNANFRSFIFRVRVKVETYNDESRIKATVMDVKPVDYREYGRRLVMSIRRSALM
T1 sequence (P15927 whole entry, chain 2 of 3): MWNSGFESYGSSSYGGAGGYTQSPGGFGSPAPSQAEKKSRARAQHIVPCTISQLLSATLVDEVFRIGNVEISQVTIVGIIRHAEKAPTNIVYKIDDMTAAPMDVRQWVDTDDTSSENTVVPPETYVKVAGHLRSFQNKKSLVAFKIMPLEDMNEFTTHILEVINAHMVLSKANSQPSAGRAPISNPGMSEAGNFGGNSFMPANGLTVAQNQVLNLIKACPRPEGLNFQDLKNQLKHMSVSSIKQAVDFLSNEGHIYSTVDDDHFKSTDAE
T1 sequence (P35244 whole entry, chain 3 of 3): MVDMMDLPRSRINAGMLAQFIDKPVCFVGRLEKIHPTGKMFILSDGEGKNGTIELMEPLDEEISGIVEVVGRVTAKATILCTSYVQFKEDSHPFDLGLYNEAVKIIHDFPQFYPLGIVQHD
Chain of yeast RPA (P22336 whole entry, chain 1 of 3): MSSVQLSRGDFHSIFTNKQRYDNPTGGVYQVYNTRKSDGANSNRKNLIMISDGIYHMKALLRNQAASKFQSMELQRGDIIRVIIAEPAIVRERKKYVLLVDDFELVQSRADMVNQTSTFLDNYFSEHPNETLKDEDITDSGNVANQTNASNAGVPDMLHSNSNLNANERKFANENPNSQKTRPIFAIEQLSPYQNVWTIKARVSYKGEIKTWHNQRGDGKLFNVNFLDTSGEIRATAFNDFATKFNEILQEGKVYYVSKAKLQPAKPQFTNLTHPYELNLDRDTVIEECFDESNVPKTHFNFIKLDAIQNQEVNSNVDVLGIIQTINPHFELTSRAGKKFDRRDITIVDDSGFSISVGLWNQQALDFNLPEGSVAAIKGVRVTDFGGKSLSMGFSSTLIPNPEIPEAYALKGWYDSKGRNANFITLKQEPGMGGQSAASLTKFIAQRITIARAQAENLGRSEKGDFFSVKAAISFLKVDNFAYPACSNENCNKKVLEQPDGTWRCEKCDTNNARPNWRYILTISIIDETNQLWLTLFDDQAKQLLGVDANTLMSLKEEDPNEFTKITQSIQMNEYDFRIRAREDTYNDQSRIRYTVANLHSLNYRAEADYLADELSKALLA
Chain of yeast RPA (P26754 whole entry, chain 2 of 3): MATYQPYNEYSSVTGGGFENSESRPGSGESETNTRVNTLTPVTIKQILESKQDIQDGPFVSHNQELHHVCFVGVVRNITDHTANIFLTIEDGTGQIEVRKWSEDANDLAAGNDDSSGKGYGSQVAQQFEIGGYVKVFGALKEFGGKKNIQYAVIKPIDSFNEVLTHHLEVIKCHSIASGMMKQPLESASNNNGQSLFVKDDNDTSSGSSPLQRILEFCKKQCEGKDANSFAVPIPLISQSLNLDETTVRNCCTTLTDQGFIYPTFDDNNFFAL
Chain of yeast RPA (P26755 whole entry, chain 3 of 3): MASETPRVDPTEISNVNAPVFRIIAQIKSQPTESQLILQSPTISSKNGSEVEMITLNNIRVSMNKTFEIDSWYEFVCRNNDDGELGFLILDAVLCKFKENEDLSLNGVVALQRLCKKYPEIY

TTTTTTTTTTTTTTTTTTTTTTTTTTTTTT (ssDNA) [(dT)30]: in series [1], the binding result is “binds”.
Same read-out and setting: the entry for TTTTTTTTTTTTTTT (ssDNA) [(dT)15] is “binds”.
As for TTTTTTTTTTTTTTTTTTTTTTTTT (ssDNA) [(dT)25], the binding result (in series [2]; with yeast RPA) was “binds” in each case.
Regarding TTTTTTTTTTTTTTTTTTTTTTTTTTTTTTTTTTTTTTTTTTTTT (ssDNA) [(dT)45], the binding result in series [1] is reported as “binds”.
